B1: OsGH3-2: GH3 protein, accession BAF06259 (protein, listed as Oryza sativa)
chain: MAPAAVAAAEAGSKAAAVAGKAVAACERDAEKLEFIEEMTRGFDAVQERVLAAILARNNGAEYLRRHGMEGRTDREAFKARVPVVTYEDLRPEIERIANGDRSNIISSHPITEFLTSSGTSAGERKLMPTIEDELDRRQMLYSLLMPVMNLYVPGLDKGKGLYFLFIKSETKTPGGLPARPVLTSYYKSDHFKHRPFDPYNVYTSPTAAILCTDAFQSMYAQMLCGLVARAEVLRVGAVFASGLLRAIRFLQLHWRELAHDIRTGTLSAKVTEPSIRDAVAEVLAAPDAELAAFVEAECGKDKWEGIITRMWPNTKYLDVIVTGAMAQYIPTLKFYSGGLPMACTMYASSECYFGLNLRPMCDPSEVSYTIMPNMGYFELMPHDPDAPPLPRDAPPPRLVDLADAEVGREYELVITTYAGLCRYRVGDILQVTGFHNAAPQFRFVRRKNVLLSIDSDKTDEAELQAAVERASALLSPYGASIVEYTSQADATTIPGHYVVYWELMVREGGAWPPPAEEEGRGVFERCCLEMEEALNAVYRQGRNGEAIGPLEIRVVRAGTFEEVMDYAISRGASINQYKAPRCVSFGPIIELLNSRVISKHFSPACPKYSPHKK
B2: AtGH3-15: GH3 protein, accession CAB87144 (protein, listed as Arabidopsis thaliana)
chain: MLPKFDPTNQKACLSLLEDLTTNVKQIQDSVLEAILSRNAQTEYLRGFLNGQVDKQNFKKNVPVVTYEDIRSYIDRIANGEPSDLICDRPISVLLTSSGTSGGVPKLIPLTTEDLEQRISFSSLYAPLLYKHIDGLSEGKSLIFYFVTRESKTANGDSLQVSPHAITTCADTTQSMYCQLLCGLLERDNVARLGAPFASSFLKVIKFLEDHWPELCSNIRTGRLSDWITDATCTSGIGKFLTAPNPELASLIEQECSKTSWEAILKRLWPKAKCIESIITGTMAQYIPLLEFYSGGLPLTSSFYGSSECFMGVNFNPLCKPSDVSYTIIPCMGYFEFLEVEKDHQEAGHDPTEKPVVVDLVDVKIGHDYEPVVTTFSGLYRYRVGDVLRATGFYNNAPHFCFVGRQKVVLSIDMDKTYEDDLLKAVTNAKLLLEPHDLMLMDFTSRVDSSSFPGHYVIYWELGSKVKDAKFEPNRDVMEECCFTVEESLDAVYRKGRKNDKNIGPLEIKVVKPGAFDELMNFFLSRGSSVSQYKTPRSVTNEEALKILEANVISEFLSRKIPSWELHELHSGR
B3: SbEER99639: GH3 protein, accession EER99639 (protein)
chain: MAVMAEVVSTTGAALRSPASQPPPPPAAAAVKDADAEKLQFIEEMTSNVDAVQERVLGEILARNADTEYLAKYGITGASDRATFRAKVPMATYEDLQPYIRRIADGDRSPILSGHPVSEFLTSSGTSAGERKLMPTIEDELNRRQLLYSLQMPVMNLYVPGMDKGKALHFLFVKSETKTPGGLAARPVLTSYYKSNHFKNRPFDAYNNYTSPTAAILCADAFQSMYAQMVCGLCQRQDVLRVGAVFASGLLRAIRFLQLNWEQLADDIESGSLTPRITDPSVREAVAGILRPDPELASLVRSECSKGDWAGIITRIWPNTKYLDVIVTGAMAQYIPTLKYYSGGLPMACTMYASSECYFGLNLRPMCDPSEVSYTLMPNMCYFEFLPMDAAASGGGDASQLVDLARVEVGREYELVITTYAGLNRYRVGDVLQVTGFHNTAPQFRFVRRKNVLLSIESDKTDEAELQRAVERASALLRPHGAAVVEYTSQAYTKSIPGHYVIYWELLTKGPAAGAGAAVDRETLDRCCLEMEEALNTVYRQSRVADGSIGPLEIRVVRPGTFEELMDYAISRGASINQYKVPRCVTFPPIIELLDSRVVSTHFSPALPHWTPGQRSHSD
modifications: Sorghum bicolor
B4: OsGH3-8: GH3 protein, accession Q0D4Z6 (protein, listed as Oryza sativa)
chain: MAVMTDVSTTGTALRTPAAGAVKEGDVEKLRFIDEMTTNVDAVQERVLGEILGRNAGTEYLTKCGLDGATDRAAFRAKVPVVSYDDLQPYIQRIANGDRSPILSTHPVSEFLTSSGTSAGERKLMPTIMDELDRRQLLYSLLMPVMNLYVPGLDKGKGLYFLFVKSETKTPGGLTARPVLTSYYKSDHFKNRPYDPYHNYTSPTAAILCADAFQSMYAQMVCGLCQRNDVLRLGAVFASGLLRAIRFLQLNWEQLADDIESGELTPRVTDPSVREAVAAILLPDPELAKLIRAECSKGDWAGIITRVWPNTKYLDVIVTGAMAQYIPTLEFYSGGLPMACTMYASSECYFGLNLRPMCDPSEVSYTIMPNMGYFEFLPVDETGAASGDATQLVDLARVEVGREYELVITTYAGLNRYRVGDVLRVTGFHNAAPQFRFVRRKNVLLSIESDKTDEAELQRAVERASALLRPHGASVVEYTSQACTKRIPGHYVIYWELLTKGAGATVVDADTLGRCCLEMEEALNTVYRQSRVADGSIGPLEIRVVRPGTFEELMDYAISRGASINQYKVPRCVTFPPIVELLDSRVVSSHFSPALPHWTPARRSE
B5: OsGH3-1: GH3 protein, accession Q8LQM5 (protein, listed as Oryza sativa)
chain: MPEAPTAKTAPAYGYAPGAHAEALEFIEHVTANAGQVQRRVLGEILAQNAPAEYLRRYGIPGSPDVVDAFRRLVPLVTYEGLQPDILRIANGDTSPIFSGKPISEFLTSSGTSGGERKLMPTIADEMNRRSLLYSLLMPVMSQSVSGLDKGKAMYLLFVKAESRTPGGLAARPVLTSYYRSRQFLDRPRDPYTSYTSPDEAILCVDSYQSMYAQLLCGLVHRADVLRVGAVFASGFLRAIHFLEKHWARLCHDIRTGELDPEITDRVVRDAVGRVLRADPALADAIEDECARASWEGIIRRLWPRTKYIDVIVTGTMSQYIPTLEFYGGGLPLTCTMYASSECYFGLNLNPMCKPSDVAYTLIPTMCYYEFLPVNCNNATAEASHRDLVDLVDVKLGHEYELVVTTYSGLYRYRVGDVLRVAGFKNKAPMFSFVRRQNVALSVDSDKTDETELHAAVSGAVQHLAPFGASLVEYTSYADAATIPGHYVLFWELRAGSTAVPASVFEECCLSVEEALNSVYRQGRACDRSIGPLEIRVVAEGTFDKLMDYAISRGASINQYKAPRCVRPGPVVELLDARVQGKYFSPKCPKWSPGNKQWNKSKDLVGKGDA
B6: OsGH3-4: GH3 protein, accession AAU90225 (protein, listed as Oryza sativa)
chain: MPEAVAAAVSPAAAAATAMCAEHREKLEHIERVTRNAGQEQRRVLEEILAQNAQAEYLRRLGVPGDAPGADEAFRRLAPLVTYEDILPDVLRIANGDTSPILSGKPVSEFLTSSGTSGGERKLMPTIEEEMERRSGLYSLLMPVMSRQVPGLDKGKAMYLYFVKSEWRTPGGLPARPVLTSFYRSRYFLERPHDPYTVYTSPDEAVLCEDAYQSMYAQLICGLVHRADVLRVGAVFASGFLRAIRFLEKHWPSLCRDIRAGELDGGVTDPAVRGAVGRVLRGADPALADAIEAECARPSWQGIIRRVWPSTKYIDVIVTGAMAQYIPTLEFYGGGLPLACTMYASSECYFGLNLNPMCKPSEVAYTLIPTMCYFEFLPVNSGANDVAAPEPDHRGLVDLVDVKLGHEYELVVTTYSGLYRYRVGDVLRVAGFKNAAPMFAFVRRKNVALSIDSDKTDEAELHAAVTEAVQHLAPFGASLVEYTSYADTATTIPGHYVLFWELRSPAGGTPVPASVFEDCCLAVEEGLNSVYRQCRAADRSIGPLEIRVVADGTFDKLMDYALSRGASINQYKAPRCVRPGPVVELLDGRVQATYFSPKCPKWCAGGNKQWISSGAAAKKTTTTCDSLAV
B7: SbEES01517: GH3 protein, accession EES01517 (protein)
chain: MAPMATAAAAAAVGRVTALGVAACERDVEKLEFIEDKTKNFDAEQVRVLAEILARNNGAEYLRRHGMEGRTDRQAFKARVPVVTYEDLRPEIDRIANGDRSNIISSHPITEFLTSSGTSAGERKLMPTIEDELNRRQMLYSLLMPVMNLYVPGLDKGKGLYFLFIKSETKTPGGLPARPVLTSYYKSDHFKHRPYDPYNVYTSPTAAILCTDSFQSMYSQMLCGLVARTEVLRVGAVFASGLLRAIRFLQLHWKELAHDLRTGTLSARVVEPSIRDAVAEVLTKPDAGLADLVEAECGKDNWEGIITRVWPNTKYLDVIVTGAMAQYIPTLKYYSGGLPMACTMYASSECYFGLNLRPMCDPSEVSYTIMPNMGYFELLPHDPEDKPAVSSSSAASAMDHDRLLVDLADAEVGKEYELVITTYAGLCRYRVGDILHVTGFHNAAPQFRFVRRKNVLLSIDSDKTDEAELQSAVERASRLLAPYDARIVEYTSQADATTIPGHYVVYWELMVRDGGASPEPDVFERCCLEMEEALNAVYRQGRNGDAIGPLEIRVVRGGTFEEVMDYAISRGASINQYKAPRCVSFGPIIELLNSRVVSRHFSPACPTYSPHKK
modifications: Sorghum bicolor

A short description of the first data set: LC-MS assay of GH3 conjugation of IAA with Asp or Glu. It is filed as biochemical. To be noted: conjugation of IAA with Asp by recombinant GH3 protein; IAA-Asp product by LC-MS. The procedure, abridged: (§1)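 Kinetic parameters come from Michaelis-Menten fits of initial velocities. Velocities reflect LC-MS quantification, against standards, of Asp or Glu conjugates formed by purified GH3 (44 to 164 μg/mL) with 5 mM ATP and MgCl2 at pH 8.0, 30° C.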
With B1, the “kcat (hrs−1) IAA-Asp” value was found to be 664.242 h⁻¹.
For the molecule B2, the “kcat (hrs−1) IAA-Asp” value stood at 0.000 h⁻¹.
For B3, the “kcat (hrs−1) IAA-Asp” value was determined as 651.991 h⁻¹.
Take B4: the “kcat (hrs−1) IAA-Asp” value is 578.598 h⁻¹.
Turning to B5, the “kcat (hrs−1) IAA-Asp” value is 633.605 h⁻¹.
Same read-out and setting: with B6 the figure was 919.336 h⁻¹; with B7, 855.770 h⁻¹.

Staying with this data set, now noted: conjugation of IAA with Glu by recombinant GH3 protein; IAA-Glu product by LC-MS.
Regarding B1, the “kcat (hrs−1) IAA-Glu” value is 42.295 h⁻¹.
Same read-out and setting: to B2 belongs 0.000 h⁻¹; to B3, 31.110 h⁻¹; to B4, 28.361 h⁻¹.
The same measure, in the same setting: with B5 the figure was 33.412 h⁻¹.
As for B6, the “kcat (hrs−1) IAA-Glu” value was 17.854 h⁻¹.
Still for that read-out and setting: with B7 the figure was 80.034 h⁻¹.

The nature of the next data set: LC-MS assay of GH3 conjugation of 2,4-D with Asp or Glu. Type of data set: biochemical. The following applies: conjugation of 2,4-D with Asp by recombinant GH3 protein; 2,4-D-Asp product by LC-MS; 5 mM 2,4-D substrate. The procedure, abridged:
as §1
With B1, the “kcat (hrs−1) 2,4-D-Asp” value turned out to be 1.548 h⁻¹.
Same read-out and setting: to B2 belongs 0.000 h⁻¹; to B3, 2.476 h⁻¹; to B4, 2.917 h⁻¹.
Regarding B5, the “kcat (hrs−1) 2,4-D-Asp” value worked out at 0.937 h⁻¹.
In the case of B6, the “kcat (hrs−1) 2,4-D-Asp” value was found to be 2.002 h⁻¹.
On the same count and under the same terms, with B7 the figure was 0.953 h⁻¹.

The data set is the same for the next values; noted with them: conjugation of 2,4-D with Glu by recombinant GH3 protein; 2,4-D-Glu product by LC-MS; 5 mM 2,4-D substrate.
Take B1: the “kcat (hrs−1) 2,4-D-Glu” value was 0.401 h⁻¹.
As for B2, the “kcat (hrs−1) 2,4-D-Glu” value stood at 0.000 h⁻¹.
Still for that read-out and setting: with B3 the figure was 0.457 h⁻¹; with B4, 0.368 h⁻¹.
Same read-out and setting: to B5 belongs 0.207 h⁻¹; to B6, 0.254 h⁻¹.
The same measure, in the same setting: with B7 the figure was 0.426 h⁻¹.

These data come from patent US20150351390A1, “COMPOSITIONS AND METHODS FOR AUXIN-ANALOG CONJUGATION” (PIONEER HI-BRED INTERNATIONAL, INC., priority 2012, published 2015).
